Assay results: publication PMC6754406 (2019)
Where no end group is shown, it is not given here. [ ]: non-standard residue; d: D form. pS = N[C@@H](COP(=O)(O)O)C(=O)O

B1: GM130-S25D (phosphomimetic GM130 (1-85) mutant), non-tagged (domain or fragment)
chain: MSEETRQSKLAAAKKKLREYQQRNDPGVPTGAKKKKKIKNGSNPETTTSGGCHSPEDTPKDNAATLQPSDDTVLPGGVPSPGASL
B3: GM130-WT (wild type GM130 N-terminal region, a.a. 1-85), non-tagged (domain or fragment)
chain: MSEETRQSKLAAAKKKLREYQQRNSPGVPTGAKKKKKIKNGSNPETTTSGGCHSPEDTPKDNAATLQPSDDTVLPGGVPSPGASL

Columns and labels:
[1] = target: Importin-α(ΔIBB) (Importin-α lacking the IBB domain, a.a. 70-524) (mouse, UniProt P52293 70-524); assay: ITC; 200 mM NaCl
[2] = target: B3; assay: ITC
[3] = target: B1; assay: ITC
[4] = target: T1, Importin-α FL (full-length Importin-α), recombinant (human, UniProt P52292 1-529); assay: ITC
[5] = target: T1, Importin-α FL (full-length Importin-α), …; assay: ITC; phospho-S25
[6] = target: Importin-β, recombinant, non-tagged (human, UniProt Q14974 1-876); assay: ITC; phospho-S25
Sequence of Importin-β, recombinant, non-tagged (Q14974 whole entry): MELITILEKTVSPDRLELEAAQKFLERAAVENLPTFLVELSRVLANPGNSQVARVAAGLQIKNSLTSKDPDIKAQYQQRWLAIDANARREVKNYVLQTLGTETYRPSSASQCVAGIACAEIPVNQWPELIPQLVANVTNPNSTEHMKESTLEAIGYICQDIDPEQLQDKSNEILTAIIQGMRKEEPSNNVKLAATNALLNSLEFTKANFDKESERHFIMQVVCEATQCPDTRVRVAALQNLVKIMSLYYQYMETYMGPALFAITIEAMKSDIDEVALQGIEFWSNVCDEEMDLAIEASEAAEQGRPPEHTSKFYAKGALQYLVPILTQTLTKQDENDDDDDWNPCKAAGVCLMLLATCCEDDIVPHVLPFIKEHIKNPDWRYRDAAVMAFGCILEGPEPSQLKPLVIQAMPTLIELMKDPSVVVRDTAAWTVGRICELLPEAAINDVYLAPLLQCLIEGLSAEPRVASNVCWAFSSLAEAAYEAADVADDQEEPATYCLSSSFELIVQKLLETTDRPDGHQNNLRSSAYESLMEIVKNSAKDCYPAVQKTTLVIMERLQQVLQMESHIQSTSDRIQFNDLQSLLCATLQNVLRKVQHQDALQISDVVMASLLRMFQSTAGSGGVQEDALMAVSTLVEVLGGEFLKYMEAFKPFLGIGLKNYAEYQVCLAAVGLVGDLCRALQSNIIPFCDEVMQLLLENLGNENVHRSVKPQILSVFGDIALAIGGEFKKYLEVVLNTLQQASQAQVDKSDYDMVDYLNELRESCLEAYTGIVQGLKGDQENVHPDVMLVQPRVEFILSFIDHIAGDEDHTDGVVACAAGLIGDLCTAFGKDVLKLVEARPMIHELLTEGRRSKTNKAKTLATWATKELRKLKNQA

## B1
[1]
  Kd: 227 nM

B2: p115-CTD (p115, a.a. 780-930) (domain or fragment)
chain: SARDSEQVAELKQELATLKSQLNSQSVEITKLQTEKQELLQKTEAFAKSVEVQGETETIIATKTTDVEGRLSALLQETKELKNEIKALSEERTAIKEQLDSSNSTIAILQTEKDKLELEITDSKKEQDDLLVLLADQDQKILSLKNKLKDL
[2]
  Kd: 823 nM
[3]
  Kd: 985 nM

## B3
[1]
  Kd: 322 nM

B4: GM130-NLS WT peptide (peptide)
chain: AKKKLREYQQRNSPGVPTGAKKKKKIK
[4]
  Kd: 6900 nM

B5: GM130-NLS phospho-S25 (synthetic peptide with a phosphate moiety on Ser-25 of GM130, a.a. 13-40) (peptide)
chain: AKKKLREYQQRN[pS]PGVPTGAKKKKKIKN
[5]
  Kd: 2100 nM
[6]
  Kd: 270 nM
